Laboratory results: patent US20050142141A1 (University of California, published 2005)
Numbering of substitutions follows the chain as printed.

Molecular target: T1, soluble extracellular domain (ECD) of the human insulin receptor (human, UniProt P06213 28-956, limits assumed)
T1 construct: extracellular domain; also called HIR ECD; extracellular domain of the HIR
Experiment: immunoradiometric assay (IRMA) on HIR ECD with [125I]-murine 83-14 MAb as ligand
Source text: In the IRMA, the antigen was the extracellular domain of the HIR, which was produced from transfected CHO cells and purified by lectin affinity chromatography of CHO cell conditioned medium.

B1: murine 83-14 HIRMAb (antibody, V domains shown)
VH: QVQLQESGPELVKPGALVKISCKASGYTFTNYDIHWVKQRPGQGLEWIGWIYPGDGSTKYNEKFKGKATLTADKSSSTAYMHLSSLTSEKSAVYFCAREWAYWGQGTLVTVSA
VL: DIQMTQSPSSLSASLGERVSLTCRASQDIGGNLYWLQQGPDGTIKRLIYATSSLDSGVPKRFSGSRSGSDYSLTISSLESEDFVDYYCLQYSSSPWTFGGGTKMEIKR
notes: Intact murine IgG from the 83-14 hybridoma; the murine constant regions and isotype are not; also called HIRMAb 83-14; MAb 83-14
Q: B1 was tested. Which Kd did it give?
A: 2.7 nM

B2: Version 5 humanized HIRMAb (antibody, human IgG1, V domains shown)
VH: B1 VH with Q5L, P9A, K13R, A16S, L17S, L108T
VL: DIQMTQSPSSLSASVGERVTITCRASQDIGGNLYWYQQKPGKAPKLLIYATSSLDSGVPSRFSGSGSGTDYTFTISSLQPEDIATYYCLQYSSSPWTFGQGTKVEIKR
notes: also called version 5 HIRMAb; Version 5 humanized 83-14 HIRMAb
Q: How did the Kd turn out when B2 was run?
A: 3.7 nM
